Reference: patent US20240200091A1, “USE OF PROTOPORPHYRINOGEN OXIDASE” (BEIJING DABEINONG BIOTECHNOLOGY CO., LTD., priority 2021, published 2024)

B1: PPO12B: nucleotide sequence encoding protoporphyrinogen oxidase PPO12, maize common codon usage bias (nucleic acid)
DNA: ATGAAGAAGGCGCTGTTTTTATATTCAAGTCGTGAGGGCCAAACAAAAAAAATATTGAACTACATTGAAGGTGAATTGTCCAATTTTGAGTGCGAGCTCGTCGACCTCCACACGCTGGACGCCATTGATTTCTCGGTCTATGACAGGGTTTTGATTGGAGCAAGCATACGGTACGGCCACCTAAACAAGAAACTTTATCAATTCATTGAGAATAACCGCCAGCAGCTGGAAAATCATACCAAGGTGGCCTTCTTCTGTGTAAATCTTACTGCAAGGAAGGAAGATCAAGGCAAGGACACCCCTGAAGGGAGCGTCTACATCCAGAAGTTCCTGAAAAAATCTCCCTGGCAGCCAAAACTTATCGGGGTGTTCGCTGGCGCGCTCTACTACCCGAGATATGGTTTTTTTGACAAGATGATGATCAAGCTCATCATGACGCTGACAGATGGAGAGACTGATACTACAAAGGAGGTGGAGTACACCAACTGGAAGAAAGTTTCCCTCTTCGCCAAGAAGTTTGCTGAGCTTTGA
modifications: The nucleotide sequence of PPO12B
B2: PPO6B: nucleotide sequence encoding protoporphyrinogen oxidase PPO6, maize common codon usage bias (nucleic acid)
DNA: ATGTCAAGTCCCAACGGGAAGTACCTTATGCTGTATAGCACGACTGATGGACACACCAAGACAATAATGGACACCATGGCGAAGCACATTATGGAAGAGGCCAAAGTTCAGTGCGACGTCGTAGACATGAGGGACGGGGACAAGTATGAACTTGCGGCTTACGAGAAGGTCATGCTCGGCGCCTCCATAAGGTACGGCTTCTTCAGCCGCACCTTGCATACATATACTACCCATCATGTTGATGAGCTTAACTCCATGCCATCGGCATTCTTTGGTGTTAATTTAACGGCGCGGAAAACTAGCAAGAACACAGCCATGACCAATGCTTATACACGGAAATTCCTGGATCAATCTATGTGGGTGCCACAGCTGAGTGGGGTCTTCGCCGGTGCACTCTGGTACCCCCGCTACAACTTTTTTGATCGAGTGATGATCCAGTTCATCATGAAGGTGACGGGCGGCGAAACAAATACTACAAAAGAGATCGTCTACACGGACTGGGATGCAGTGCACAAGTTTGCTACTGACTTCGTCCAACTCCCTGCCACCGCCATTCCAAGATCTAAACCTGCTACGTCGGTGCCGCCGGCGTCAGTAGCAAACTATGATAATGGTGCTCGTGTTGCGCTGGTGGTGGTTGGAATTTCTGCAGCCATCATCTTCGGCCGCAGGCTAATTTTGGCCAAGAGATTTTGA
modifications: The nucleotide sequence of PPO6B

What was measured:
Format in all cases: in vivo
transgenic maize plants [1] = assay: saflufenacil tolerance of transgenic maize plants (spray, grade of pesticide damage); conditions: for tolerance to saflufenacil: maize; for The grade of pesticide damage/plant: number of plants of grade 0 / The grade of pesticide damage/plant: number of plants of grade 1 / The grade of pesticide damage/plant: number of plants of grade 2 / The grade of pesticide damage/plant: number of plants of grade 3: 7 DAT, 16 maize plants per genotype
transgenic maize plants [2] = assay: oxyfluorfen tolerance of transgenic maize plants (spray, grade of pesticide damage); conditions: for tolerance to oxyfluorfen: maize; for The grade of pesticide damage/plant: number of plants of grade 0 / The grade of pesticide damage/plant: number of plants of grade 1 / The grade of pesticide damage/plant: number of plants of grade 2 / The grade of pesticide damage/plant: number of plants of grade 3: 7 DAT, 16 maize plants per genotype
transgenic maize plants [3] = assay: flumioxazin tolerance of transgenic maize plants (spray, grade of pesticide damage); conditions: for The grade of pesticide damage/plant: number of plants of grade 0 / The grade of pesticide damage/plant: number of plants of grade 1 / The grade of pesticide damage/plant: number of plants of grade 2 / The grade of pesticide damage/plant: number of plants of grade 3: 7 DAT, 16 maize plants per genotype; for tolerance to flumioxazin: maize, flumioxazin at different concentrations (120 and 240 g ai/ha)
[4] = saflufenacil at four-fold field concentration (100 g ai/ha)
[5] = saflufenacil at two-fold field concentration (50 g ai/ha)
[6] = saflufenacil 50 g ai/ha (2x field concentration)
[7] = saflufenacil 100 g ai/ha (4x field concentration)
[8] = oxyfluorfen at four-fold field concentration (720 g ai/ha)
[9] = oxyfluorfen at two-fold field concentration (360 g ai/ha)
[10] = oxyfluorfen 360 g ai/ha (2x field concentration)
[11] = oxyfluorfen 720 g ai/ha (4x field concentration)
[12] = flumioxazin 120 g ai/ha (2x field concentration)
[13] = flumioxazin 240 g ai/ha (4x field concentration)

Molecule | tolerance to saflufenacil (transgenic maize plants [1]; [4]) | tolerance to saflufenacil (transgenic maize plants [1]; [5]) | The grade of pesticide damage/plant: number of plants of grade 0 (transgenic maize plants [1]; [6]) | The grade of pesticide damage/plant: number of plants of grade 1 (transgenic maize plants [1]; [6]) | The grade of pesticide damage/plant: number of plants of grade 2 (transgenic maize plants [1]; [6]) | The grade of pesticide damage/plant: number of plants of grade 3 (transgenic maize plants [1]; [6]) | The grade of pesticide damage/plant: number of plants of grade 0 (transgenic maize plants [1]; [7]) | The grade of pesticide damage/plant: number of plants of grade 1 (transgenic maize plants [1]; [7]) | The grade of pesticide damage/plant: number of plants of grade 2 (transgenic maize plants [1]; [7]) | The grade of pesticide damage/plant: number of plants of grade 3 (transgenic maize plants [1]; [7]) | tolerance to oxyfluorfen (transgenic maize plants [2]; [8]) | tolerance to oxyfluorfen (transgenic maize plants [2]; [9]) | The grade of pesticide damage/plant: number of plants of grade 0 (transgenic maize plants [2]; [10]) | The grade of pesticide damage/plant: number of plants of grade 1 (transgenic maize plants [2]; [10]) | The grade of pesticide damage/plant: number of plants of grade 2 (transgenic maize plants [2]; [10]) | The grade of pesticide damage/plant: number of plants of grade 3 (transgenic maize plants [2]; [10]) | The grade of pesticide damage/plant: number of plants of grade 0 (transgenic maize plants [2]; [11]) | The grade of pesticide damage/plant: number of plants of grade 1 (transgenic maize plants [2]; [11]) | The grade of pesticide damage/plant: number of plants of grade 2 (transgenic maize plants [2]; [11]) | The grade of pesticide damage/plant: number of plants of grade 3 (transgenic maize plants [2]; [11]) | other results
B1 | high-resistant tolerance | high-resistant tolerance | 16 | 0 | 0 | 0 | 16 | 0 | 0 | 0 | high-resistant tolerance | high-resistant tolerance | 16 | 0 | 0 | 0 | 16 | 0 | 0 | 0 | The grade of pesticide damage/plant: number of plants of grade 0 (transgenic maize plants [3]; [12]): 16; The grade of pesticide damage/plant: number of plants of grade 1 (transgenic maize plants [3]; [12]): 0; The grade of pesticide damage/plant: number of plants of grade 2 (transgenic maize plants [3]; [12]): 0; The grade of pesticide damage/plant: number of plants of grade 3 (transgenic maize plants [3]; [12]): 0; The grade of pesticide damage/plant: number of plants of grade 0 (transgenic maize plants [3]; [13]): 16; The grade of pesticide damage/plant: number of plants of grade 1 (transgenic maize plants [3]; [13]): 0; The grade of pesticide damage/plant: number of plants of grade 2 (transgenic maize plants [3]; [13]): 0; The grade of pesticide damage/plant: number of plants of grade 3 (transgenic maize plants [3]; [13]): 0; tolerance to flumioxazin (transgenic maize plants [3]): high-resistant tolerance
B2 | high-resistant tolerance | high-resistant tolerance | 16 | 0 | 0 | 0 | 16 | 0 | 0 | 0 | high-resistant tolerance | high-resistant tolerance | 16 | 0 | 0 | 0 | 16 | 0 | 0 | 0 | The grade of pesticide damage/plant: number of plants of grade 0 (transgenic maize plants [3]; [12]): 16; The grade of pesticide damage/plant: number of plants of grade 1 (transgenic maize plants [3]; [12]): 0; The grade of pesticide damage/plant: number of plants of grade 2 (transgenic maize plants [3]; [12]): 0; The grade of pesticide damage/plant: number of plants of grade 3 (transgenic maize plants [3]; [12]): 0; The grade of pesticide damage/plant: number of plants of grade 0 (transgenic maize plants [3]; [13]): 16; The grade of pesticide damage/plant: number of plants of grade 1 (transgenic maize plants [3]; [13]): 0; The grade of pesticide damage/plant: number of plants of grade 2 (transgenic maize plants [3]; [13]): 0; The grade of pesticide damage/plant: number of plants of grade 3 (transgenic maize plants [3]; [13]): 0; tolerance to flumioxazin (transgenic maize plants [3]): high-resistant tolerance
